Assay [1] has as its target T1, Hair Keratin KRTHB1 Basic (UniProt Q14533 304-505, limits assumed).
T1 construct: The keratin was printed onto a bare gold SPRi chip; also called natural hair keratin
T1 sequence (looked up): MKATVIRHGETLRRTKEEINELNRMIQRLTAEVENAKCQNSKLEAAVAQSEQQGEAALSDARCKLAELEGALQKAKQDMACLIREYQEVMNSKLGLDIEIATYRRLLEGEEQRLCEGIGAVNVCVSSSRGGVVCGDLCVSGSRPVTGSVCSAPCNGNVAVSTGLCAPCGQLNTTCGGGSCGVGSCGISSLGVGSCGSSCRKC
As to the kind of experiment: SPRi (PlexArray HT), keratin printed on the gold chip, peptide injected; kinetic fit with BIAevaluation 4.1; five curves labelled 5.68 to 91.2 nM. As for the experimental part: (§1) Various concentrations of Keratin dissolved in water were manually printed onto the bare gold coated (thickness 47 nm) PlexArray Nanocapture Sensor Chip (Plexera Bioscience, Seattle, Wash., US) at 40% humidity. Each concentration was printed in replicate, and each spot contained 0.2 uL of […] solution. The chip was incubated in 80% humidity at 4° C. for overnight, and rinsed with 10×PBST for 10 min, 1×PBST for 10 min, and deionized water twice for 10 min. The chip was then blocked with 5% (w/v) non-fat milk in water overnight, and washed with 10×PBST for 10 min, 1×PBST for 10 min, and deionized water twice for 10 min before being dried under a stream of nitrogen prior to use. SPRi measurements were performed with PlexAray HT (Plexera Bioscience, Seattle, Wash., US). Collimated light (660 nm) passes through the coupling prism, reflects off the SPR-active gold surface, and is received the CCD camera. Buffers and samples were injected by a non-pulsatile piston pump into the 30 uL flowcell that was mounted on the coupling prim. Each measurement cycle contained four steps: washing with PBST running buffer at a constant rate of 2 uL/s to obtain a stable baseline, sample injection at 5 uL/s for binding, surface washing with PBST at 2 uL/s for 300 s, and regeneration with 0.5% (v/v) H3PO4 at 2 uL/s for 300 s. All the measurements were performed at 4° C. The signal changes after binding and washing (in AU) are recorded as the assay value. Selected protein-grafted regions in the SPR images were analyzed, and the average reflectivity variations of the chosen areas were plotted as a function of time. Real-time binding signals were recorded and analyzed by Data Analysis Module (DAM, Plexera Bioscience, Seattle, Wash., US). Kinetic analysis was performed using BIAevaluation 4.1 software (Biacore, Inc.).

For assay [2], the target named is T1, Hair Keratin KRTHB1 Basic. Nature of the assay: SPRi (PlexArray HT), keratin printed on gold chip, peptide injected, 4 C. As for the experimental part: as §1
In assay [3] the target is T1, Hair Keratin KRTHB1 Basic. Nature of the assay: SPRi (PlexArray HT), rank among the three peptides tested on keratin. As for the experimental part: as §1

Data on three molecules can be found in patent publication US11712410 (K18, dated 2023).

No end group written: not given here.

One may read the koff as the first-order rate constant of dissociation. The low end stands for a long-lived complex, the high end for a short-lived complex. In general, kon refers to the second-order rate constant of association. A low value points to slower complex formation. Usually Kd stands for a measure of binding affinity in units of concentration. Read a high Kd as a looser complex.

B1: Aquis Pep 2 (peptide)
peptide: CTPPSCCQLHHA
notes: also called Aquis peptide 2; Peptide Aquis 2
In assay [1], B1 had a koff of 0.0206 s⁻¹ and an on-rate constant (kon) of 8240 M⁻¹ s⁻¹. The molecule further displayed a Kd in assay [2] of 2500 nM. The “Affinity Ranking” value in assay [3] came to 3.

B2: KP (peptide)
peptide: GGVCGPSPPCITT
modifications: not fully specified; cysteine pairing not given here
notes: Control peptide developed by Khairpep; also called KP peptide; third peptide
B2: in assay [1], the koff worked out at 0.00692 s⁻¹ and the on-rate (kon) is 8500 M⁻¹ s⁻¹. Besides, the Kd in assay [2] was found to be 814 nM. The “Affinity Ranking” value in assay [3] is 2.

B3: Aquis Pep1 (peptide)
peptide: FCGFPSCSTSG
notes: also called Aquis peptide 1; Peptide Aquis 1
Turning to B3, in assay [1], the off-rate (koff) was 0.000478 s⁻¹ and the kon was determined as 1310 M⁻¹ s⁻¹. For the same molecule, the Kd in assay [2] was 365 nM. Moreover, the “Affinity Ranking” value in assay [3] was found to be 1.
